Data reported in the nanobody polyreactivity screen of Harvey et al. (2022).

Experiment: yeast display, Sf9 membrane polyspecificity reagent, FACS + sequencing; frameworks hold sequencing errors
How it was run: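 Nanobodies from a synthetic yeast display library (Saccharomyces cerevisiae BJ5465), induced 36–48 hours with galactose, were stained 1 hour at 4 °C with 10% biotinylated, detergent-solubilized Sf9 membrane reagent, enriched on streptavidin microbeads, then FACS-sorted. Anti-HA (expression) and streptavidin (reagent binding) fluorescence set low and high (top ~1%) gates. Polyreactivity labels come from the gate of origin. Genes were colony-PCR amplified, MiSeq 2 × 250 sequenced and filtered by CDR length.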

Row | Sequence | polyreactivity (PSR sort gate)
1 | QVQLVESGGGLVQAGGSLRLSCAASGGTFRVYAMGWYRQAPGKERELVAAITGRGGSTYYADSVKGRFTISRDNAKNTVYLQMNSLKPEDTAVYYCNKESELVEYDYWGQGTQVTVSS | low polyreactivity
2 | QDQLVESAGGLVQAGGSLRLSCAASGRIYVSNVMRWSRQAPGKERELVAAIDKSGGSTYYADSVKGRFTISRDNAKNTVYLQMNSLKPEDTAVYYCAATSYRQPYRYYYWGQGTQVTVSS | high polyreactivity
3 | QVQLVESGGGLVQAGGSLRVSCAAYGRTFYRNTMGWYRQAPGKEREFVAAISATAGRTYYADSVKGRFTFSRDNAKNTVYLQKNSLKPEDTAVYYCAAVPLRNRWPNSWPALDYWGQGTQVTVSS | high polyreactivity
4 | QVQLVESGVGLVHAGGSLRLSCAASGITFDHYTMGWYRQAPGKEREFVAAITGSGVRTYYADSVKVRFTISRDNAKNTVYLQMNSLKPEVTAVYYCAAVWRYTGKYWGQGTQVTISS | high polyreactivity
5 | QVQLVESAAGLVQAGGSLRLSCAASGFISPLYDMGGYRQAPGKERELVADITWRGGSTSYADSVKGRFTLSRDTAKKTGYLQMNSLKPEDTAVYYCAADARAFYYSNINGYWGQGTQVNVSS | high polyreactivity
6 | QVQLVESGGGLVQGGGSLRLSFAASGSIFWRNAMGWYRQAPGKERELVAAITSGGSTYYADSVKGRFTISRDNAKNTVYLQMNSLKPEDTAVYYCAAGGRWARWLFPSRYDYWGQGTQVTVSS | low polyreactivity
7 | QVQLVESGGGLVQAGGSLRLSCAASGLICGFYAMGWYRQAPGKERELVADITTSGARTYYADSVKGRFTISRDNAKNTVYLQMYSLKPEDTAVYYCNKDHSSYGASGYDYWGQGTQVTVSS | low polyreactivity
8 | QVQLVESGGGLVQAGGSLRLSCAASGSTFVRNAMGWYRQAPGKDRELVAAIRWRSGSTYYADSVKGRFTISRDNAKNTVYLQMNSLKPEDTAVYYCAKAFSRTTYRYDYWGQGTQVTVSS | high polyreactivity
9 | QVQLVESGGGLVQAGGSLRLSCAASGRIFTTNAMGWYRQAPGKERELVAAITSGASTKYADSVKGRFTISRDNAKNTVYLQMNCLKPEDTAVYYCNAKRGVNLRSNWYSHLRMDHWGQGTQVTVSS | low polyreactivity
10 | QVQLVESGGGLVQAGGSLRLSCAASGRTFGWNAMGWYRQAPGKERELVAGITTSGGTTYADSVKGRFTISRDNAKNTVYLQMNSLKPEDTAVYYCAAYVIGPDQFIYDYWGQGTQVTVSS | low polyreactivity
11 | QVQLVESGGGLVQAGGSLRLSCAASGRTFYYNVMGWYRQAPGKERELVAAISTGVSTNYADSVKGRFTISRDNAKNTVYLQMNSLKPEDTAVYYCNARSYRWYRPVYRYDYWGQGTQVTVSS | high polyreactivity
12 | QVQLVESGGGLVQAGGSLRLSCAASGITFAEYAMGWYRQAPGKERELVAAINGGGGSTYYADSVKGRFTISRDNAKNTVYLQMNSLKPEDTAVYYCAARYRGWSGGYDYWGQGTQVTVSS | high polyreactivity
13 | QVQLVESGGGLVQAGGSLRLSCAASGRTFYVYTMGWYIQAPGKEREMVAGIAYSGGSTYYADSVKGRFTISRDNAKNTVYLQMNSLKPEDTAVYYCNADLYFPYFDGKTRHGGYWGQGTQVTVSS | low polyreactivity
14 | QVHLVESGGGLVQAGGSLRLSCAASGSTFRDYDMGWYRQAPGKERELVAAISLSGGLTHYADSVKGRFTISRDNGKNTVYLQMNSLKPEDTAVYYCAARNTGPVQYYYWGQGTQVTVSS | low polyreactivity
15 | QVQLVESGGGLVQAGGSLRLICAASGLTFTPNAMGWYRQAPWKEREFVAAITWRGGRTYYADSVKGRFTISRDNAKNTVYLQMNSLKPEDTAVYYCAVTYRPTDQLDYWGQGTQVTVSS | high polyreactivity
16 | QVQLVESGGGLVQAGGSLRISCAASGRTFPWYAMGWYRPAPGKERELVADITWSGGSTYYADSVKGRFTISRDNAKNTVYLQMNSLKPEDTAVYYCATRVLFWYRKYPGRPLTKYDYWGQGTQVTVSS | high polyreactivity

Row | Sequence | polyreactivity (PSR sort gate)
17 | QVQLVESGGGLVQAGGSLRLSCAASGSTFPFYDMGWYRQAPGKERELVAAIRYTGNTYYADSVKGRFTISRDNAKNTVYLQMNSLKPEDTAVYYCAADADYWAYGYWGQGTQVTVSS | low polyreactivity
18 | QVQLVESGGGLVQAGGSLRLSCAASGFTFSRYAMGWYRQAPGKERELVAVITWNGGRTYYADSVKGRFTISRDNAKNTVYLLMNSLKPEDTAVYYCKAYYFFLPYRYSTYDYWGQGTQVTVSS | high polyreactivity
19 | QVQLVESGGVLVQAGGSLRLSCAASGSTFQKYTMGWYRQAPGKERELVAGISGGGSTYYADSVKGRFTISRDNAKNTVYLQMNSLKPEDTAVYSCAAETLYTGPPPRYDYWGQGTQVTVSS | low polyreactivity
20 | QVQLVESGGGLVQAGGSLRLSCAASGRTFYPYAMGWYIQAPGKEREFVATITWSGTTTYYADSVKGSFTISRDNAKNTFYLQMNSLKPVDTAVYYCAADVWEVVTPYGTIDDDYWGQGTQVTVSS | high polyreactivity
21 | QVQLVESGGGLVQAGGSLRLSCAASGSIFKSYAMGWYRQAPGKERELVAAITRSGGSTYYADSVKGRFTISRDNAKNTVYLQMNSLKPEDTAVYYCAKKAPYWSYYYWGQGTQVTVSS | high polyreactivity
22 | QVQLVESGGGLVQAGGSLRVSCAASGSIFSLYTMGWYRQAPGKERELVAAISGSGGRTYYADSVKGRFTISRDNAKNTVYLQMNSLKPEDTAVYYCAADTRSYTYYYWGQGTQVTVSS | high polyreactivity
23 | QVQLVESGGGLVQAGGSLRLSCAASGLIFRYYAMGWYSQAPGKEREFVAAISGPGASTYYADSVKGRFTISRDNAKNTVYLQMNSLKPEDTAVYYCNTLLTYGYDYWGQGTQVTVSS | high polyreactivity
24 | QVQLVESGGGLVQAGGSLRLSCAASGFIFFINDMGWYRQAPGKERELVAAISWSGGSTYYADSVKGRFTLSRDNAKNTVYLQMNSLKPEDTAVNYCNTDVPTAQYDYWGQGSQVTVSS | low polyreactivity
25 | QVQLVESGGGLVHAGGRLRLSCTASGGIFRYYAMGWYRQAPGKERELVAGISRSGGSTHYADSVKGRFTISRDNAKNTVYLQMNSLKPEDTAVYYCAADTYFTKYDYWGQGTQVTVSS | high polyreactivity
26 | QVQLVESGGCLVQAGGSLRLSCAASGFIFSTNAMAWYRQARGTERELVAAITGRGTNTYYADSVKGRFTISRDNAKNTVYLQMNSLKPEDTAVYYCAADGGSYSDYDYWGLGTQVTVSS | high polyreactivity
27 | QVQLVESGGGLVQAGGSLRLSCAASGSIFYTNAMGWYRQAPGKERELVAAIRKSGGSTYYADSVKGRFTISRDNAKNTVYLQMNSLKPEDTAVYYCNKLYRVPQDLHDYWGQGTQVTVSS | high polyreactivity
28 | QVQLVESGGGLVQGGGSLRLSCDASGFIFPAYARGWYRQAPGKEREWVAAISKSGGRTYYADSVKGRFTISRDNAKNPVYLQMNRLKPEDTAVNYCPARLYNYDTSSSFDYWGQGTQVNVSS | high polyreactivity
29 | QVQLVESGGGLVQAGGSLRLSCAASGRTFKRNTMGWYRQAPGKERELVAAISGTGSTNYADSVKGRFTISRDNAKNTVYLQMNSLKPEDTAVYYCGADDFSTVEYDYWGQGTQVTVSS | low polyreactivity
30 | QVQLVESGGGLVQAGGSLRLSCAASGLIFGGNAMGWYRQAPGKERELVAAISRSTGRTYYADSVKGRFTISRDNAKNTVYLQMNSLKPEDTAVYYCNAVGYAFPSYDSWGQGTQVTVSS | high polyreactivity
31 | QVQHVESGGGLVQAGGSLRLSCAASGSTFYENAMGWYRQAPGKERELGAGIRSTGRTYYADSVKGRFTISRDNAKNTVYIQMNSLKPEDTAVYYCAAYVGTYGEYDYWGQGTQVTVSS | low polyreactivity
32 | QVQLVESGGGLVQAGGSLRLSCAASGFTFGYNAMGWYRQAPGKEREFVAAITKSGDSTYYADSVKGRFTISRDNAKNSVYLQMNSLKPEDTAVYYCAAQYRQRRHDYWGQGTQVTVSS | high polyreactivity
